Experimental data reported in patent EP4707301A1 (AJOU UNIVERSITY INDUSTRY-ACADEMIC COOPERATION FOUNDATION, dated 2026).
Positions count from the first letter of the chain named. In names and notes the source's numbering stands.

T1: hIL-5Rα, purified recombinant protein (human, UniProt Q01344 21-342, limits assumed)
T1 construct: Soluble antigen of the Octet experiments
T1 sequence (looked up): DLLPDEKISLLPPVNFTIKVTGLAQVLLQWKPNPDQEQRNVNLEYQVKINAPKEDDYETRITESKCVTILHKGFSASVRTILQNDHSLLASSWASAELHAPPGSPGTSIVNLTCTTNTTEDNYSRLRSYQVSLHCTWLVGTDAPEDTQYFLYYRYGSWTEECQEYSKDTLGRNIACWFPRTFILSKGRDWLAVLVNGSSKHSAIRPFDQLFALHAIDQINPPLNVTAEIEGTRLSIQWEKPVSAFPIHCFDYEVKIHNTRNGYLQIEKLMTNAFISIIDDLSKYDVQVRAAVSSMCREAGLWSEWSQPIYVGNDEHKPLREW

T2: human IL-5Rα expressed on the K562/IL-5Rα cell line (human, UniProt Q01344 21-420)
T2 sequence (looked up): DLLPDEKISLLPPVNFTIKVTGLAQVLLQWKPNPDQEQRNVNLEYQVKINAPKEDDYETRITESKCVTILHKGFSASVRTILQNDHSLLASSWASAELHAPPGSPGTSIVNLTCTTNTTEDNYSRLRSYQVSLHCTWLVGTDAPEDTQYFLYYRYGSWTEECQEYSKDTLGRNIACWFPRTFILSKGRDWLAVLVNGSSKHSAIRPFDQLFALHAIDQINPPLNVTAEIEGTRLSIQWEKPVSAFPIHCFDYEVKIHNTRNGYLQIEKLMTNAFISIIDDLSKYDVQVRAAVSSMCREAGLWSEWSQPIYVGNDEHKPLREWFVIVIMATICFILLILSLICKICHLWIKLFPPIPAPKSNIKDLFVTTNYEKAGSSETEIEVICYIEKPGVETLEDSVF

B1: IL-5Rα×CD3ε-scFv(L)/scFv-Fc (bispecific antibody, human IgG1)
chain 1: QAVVTQESALTTSPGETVTLTCRSSTGAVTTSNYANWVQEKPDHLFTGLIGGTNKRAPGVPARFSGSLIGDKAALTITGAQTEDEAIYFCALWYSNLWVFGGGTKLTVLGGGGSGGGGSGGGGSEVQLVESGGGLVQPKGSLKLSCAASGFTFNTYAMNWVRQAPGKGLEWVARIRSKYNNYATYYADSVKDRFTISRDDSQSILYLQMNNLKTEDTAMYYCVRHGNFGNSYVSWFAYWGQGTLVTVSSEPKSCDKTHTCPPCPAPEFEGGPSVFLFPPKPKDTLMISRTPEVTCVVVAVSHEDPEVKFNWYVDGVEVHNAKTKPREEQYNSTYRVVSVLTVLHQDWLNGKEYKCKVSNKALPAPIEKTISKAKGQPREPQVYTLPPSRDELTENQVSLTCLVKGFYPSDIAVEWESNGQPENNYKTTPPVLDSDGSFFLYSWLTVDKSRWQQGNVFSCSVMHEALHNHYTQKSLSLSPGK
chain 2: DIQMTQSPSTLSASVGDRVTITCKASQNVGTAVAWYQQKPGKAPKLLIYWASTRHTGVPDRFSGSGSGTDFTLTISSLQPDDFATYYCQQFGRYPYTFGSGTKVEVKGGGGSGGGGSGGGGSQVQLVQSGAEVKKPGSSVKVSCKASGYTFTSYWINWVRQAPGQGLEWIGHIYPNKNENYYNHKFKDKATLTVDKSTNTAYMELSSLRSEDTAVYYCTREFYGRQYYQAMDYWGQGTTLTVSSEPKSCDKTHTCPPCPAPEFEGGPSVFLFPPKPKDTLMISRTPEVTCVVVAVSHEDPEVKFNWYVDGVEVHNAKTKPREEQYNSTYRVVSVLTVLHQDWLNGKEYKCKVSNKALPAPIEKTISKAKGQPREPRVYTLPPSRDELTKNQVSLTCLVKGFYPSDIAVEWESNGQPENNYKTTPPVLVSDGSFTLYSKLTVDKSRWQQGNVFSCSVMHEALHNHYTQKSLSLSPGK
notes: Built from 5R65.7 and humanized SP34 scFvs with (G4S)3 linkers and an IgG1 hinge; Heterodimeric IgG1 Fc with EW-RVT and FEA mutations; also called IL-5Rα×CD3α-scFv(L)/scFv-Fc
B2: IL-5Rα×CD3ε-BiTE(L)/scFv-Fc (bispecific antibody, human IgG1)
chain 1: DIQMTQSPSTLSASVGDRVTITCKASQNVGTAVAWYQQKPGKAPKLLIYWASTRHTGVPDRFSGSGSGTDFTLTISSLQPDDFATYYCQQFGRYPYTFGSGTKVEVKGGGGSGGGGSGGGGSQVQLVQSGAEVKKPGSSVKVSCKASGYTFTSYWINWVRQAPGQGLEWIGHIYPNKNENYYNHKFKDKATLTVDKSTNTAYMELSSLRSEDTAVYYCTREFYGRQYYQAMDYWGQGTTLTVSSGGGGSQAVVTQESALTTSPGETVTLTCRSSTGAVTTSNYANWVQEKPDHLFTGLIGGTNKRAPGVPARFSGSLIGDKAALTITGAQTEDEAIYFCALWYSNLWVFGGGTKLTVLGGGGSGGGGSGGGGSEVQLVESGGGLVQPKGSLKLSCAASGFTFNTYAMNWVRQAPGKGLEWVARIRSKYNNYATYYADSVKDRFTISRDDSQSILYLQMNNLKTEDTAMYYCVRHGNFGNSYVSWFAYWGQGTLVTVSSEPKSCDKTHTCPPCPAPEFEGGPSVFLFPPKPKDTLMISRTPEVTCVVVAVSHEDPEVKFNWYVDGVEVHNAKTKPREEQYNSTYRVVSVLTVLHQDWLNGKEYKCKVSNKALPAPIEKTISKAKGQPREPQVYTLPPSRDELTENQVSLTCLVKGFYPSDIAVEWESNGQPENNYKTTPPVLDSDGSFFLYSWLTVDKSRWQQGNVFSCSVMHEALHNHYTQKSLSLSPGK
chain 2: QVQLVQSGAEVKKPGSSVKVSCKASGYTFTSYWINWVRQAPGQGLEWIGHIYPNKNENYYNHKFKDKATLTVDKSTNTAYMELSSLRSEDTAVYYCTREFYGRQYYQAMDYWGQGTTLTVSSGGGGSGGGGSGGGGSDIQMTQSPSTLSASVGDRVTITCKASQNVGTAVAWYQQKPGKAPKLLIYWASTRHTGVPDRFSGSGSGTDFTLTISSLQPDDFATYYCQQFGRYPYTFGSGTKVEVKEPKSCDKTHTCPPCPAPEFEGGPSVFLFPPKPKDTLMISRTPEVTCVVVAVSHEDPEVKFNWYVDGVEVHNAKTKPREEQYNSTYRVVSVLTVLHQDWLNGKEYKCKVSNKALPAPIEKTISKAKGQPREPRVYTLPPSRDELTKNQVSLTCLVKGFYPSDIAVEWESNGQPENNYKTTPPVLVSDGSFTLYSKLTVDKSRWQQGNVFSCSVMHEALHNHYTQKSLSLSPGK
notes: Heterodimeric IgG1 Fc with EW-RVT and FEA mutations
B3: IL-5Rα×CD3ε-Diabody-Fc (bispecific antibody)
chain 1: DIQMTQSPSTLSASVGDRVTITCKASQNVGTAVAWYQQKPGKAPKLLIYWASTRHTGVPDRFSGSGSGTDFTLTISSLQPDDFATYYCQQFGRYPYTFGSGTKVEVKGGGSGGGGEVQLVESGGGLVQPKGSLKLSCAASGFTFNTYAMNWVRQAPGKGLEWVARIRSKYNNYATYYADSVKDRFTISRDDSQSILYLQMNNLKTEDTAMYYCVRHGNFGNSYVSWFAYWGQGTLVTVSSGCPPCPAPEFEGGPSVFLFPPKPKDTLMISRTPEVTCVVVAVSHEDPEVKFNWYVDGVEVHNAKTKPREEQYNSTYRVVSVLTVLHQDWLNGKEYKCKVSNKALPAPIEKTISKAKGQPREPQVYTLPPSRDELTENQVSLTCLVKGFYPSDIAVEWESNGQPENNYKTTPPVLDSDGSFFLYSWLTVDKSRWQQGNVFSCSVMHEALHNHYTQKSLSLSPGK
chain 2: QAVVTQESALTTSPGETVTLTCRSSTGAVTTSNYANWVQEKPDHLFTGLIGGTNKRAPGVPARFSGSLIGDKAALTITGAQTEDEAIYFCALWYSNLWVFGGGTKLTVLGGGSGGGGQVQLVQSGAEVKKPGSSVKVSCKASGYTFTSYWINWVRQAPGQGLEWIGHIYPNKNENYYNHKFKDKATLTVDKSTNTAYMELSSLRSEDTAVYYCTREFYGRQYYQAMDYWGQGTTLTVSSGCPPCPAPEFEGGPSVFLFPPKPKDTLMISRTPEVTCVVVAVSHEDPEVKFNWYVDGVEVHNAKTKPREEQYNSTYRVVSVLTVLHQDWLNGKEYKCKVSNKALPAPIEKTISKAKGQPREPRVYTLPPSRDELTKNQVSLTCLVKGFYPSDIAVEWESNGQPENNYKTTPPVLVSDGSFTLYSKLTVDKSRWQQGNVFSCSVMHEALHNHYTQKSLSLSPGK
notes: Built from 5R65.7 (anti-IL-5Rα) and humanized SP34 (anti-CD3ε); Heterodimeric IgG1 Fc with EW-RVT and L234F/L235E/D265A (FEA) mutations
B4: IL-5Rα×CD3ε-IgG analog (bispecific antibody)
heavy 1: QVQLVQSGAEVKKPGSSVKVSCKASGYTFTSYWINWVRQAPGQGLEWIGHIYPNKNENYYNHKFKDKATLTVDKSTNTAYMELSSLRSEDTAVYYCTREFYGRQYYQAMDYWGQGTTLTVSSASTKGPSVFPLAPSSKSTSGGTAALGCLVKDYFPEPVTVSWNSGALTSGVHTFPAVLQSSGLYSLSSVVTVPSSSLGTQTYICNVNHKPSNTKVDKKVEPKSCDKTHTCPPCPAPEFEGGPSVFLFPPKPKDTLMISRTPEVTCVVVAVSHEDPEVKFNWYVDGVEVHNAKTKPREEQYNSTYRVVSVLTVLHQDWLNGKEYKCKVSNKALPAPIEKTISKAKGQPREPRVYTLPPSRDELTKNQVSLTCLVKGFYPSDIAVEWESNGQPENNYKTTPPVLVSDGSFTLYSKLTVDKSRWQQGNVFSCSVMHEALHNHYTQKSLSLSPGK
light: DIQMTQSPSTLSASVGDRVTITCKASQNVGTAVAWYQQKPGKAPKLLIYWASTRHTGVPDRFSGSGSGTDFTLTISSLQPDDFATYYCQQFGRYPYTFGSGTKVEVKRTVAAPSVFIFPPSDEQLKSGTASVKCLLNNFYPREAKVQWKVDNALQSGNSQESVTEQDSKDSTYSLSSTLTLSKADYEKHKVYACEVTHQGLSSPVTKSFNRGEC
heavy 2: not shown
chain: QAVVTQESALTTSPGETVTLTCRSSTGAVTTSNYANWVQEKPDHLFTGLIGGTNKRAPGVPARFSGSLIGDKAALTITGAQTEDEAIYFCALWYSNLWVFGGGTKLTVLRTVAAPSVFIFPPSDEQLKSGTASVECLLNNFYPREAKVQWKVDNALQSGNSQESVTEQDSKDSTYSLSSTLTLSKADYEKHKVYACEVTHQGLSSPVTKSFNRGEC
notes: Four-chain molecule: SP34 heavy and light chains and 5R65.7 heavy and light chains, with complementary CH1/CL mutations, EW-RVT and FEA
B5: IL-5Rα(5R65)×CD3ε-scFv(L)/scFv-Fc (bispecific antibody)
chain 1: B1 chain 2 with E221D, F222Y, Q226S, Q229Y
chain 2: B1 chain 1
notes: Control in the scFv(L)/scFv-Fc format, built with 5R65, the parent antibody of 5R65.7; also called IL-5Rα(5R65)×CD3α-scFv(L)/scFv-Fc

What follows are binders tested against T1, hIL-5Rα, purified recombinant protein (assay: BLI (Octet QKe), ratio of the KD values of Table 2).

Binder	fold higher binding affinity for IL-5Rα than the Diabody-Fc format [fold]
B1	~2.1

What follows are binders tested against T2, human IL-5Rα expressed on the … (assay: cell-based or functional assay).

Binder	24hr EC50 of T cell-mediated cytotoxicity (LDH release) against K562/IL-5Rα, activated PBMC, E:T 5:1 [nM]
B2	0.0147
B1	0.000857
B3	0.00497
B4	0.0231

The binders below were run against T3, CD3ε, commercially available (sinobiological, 10977-H08H) (UniProt P07766 23-126) (assay: BLI (Octet QKe), antibody captured on AHC sensor, antigen 125-4,000 nM, 1:1 model).
T3 construct: Bought protein
T3 sequence (P07766 23-126 limits assumed): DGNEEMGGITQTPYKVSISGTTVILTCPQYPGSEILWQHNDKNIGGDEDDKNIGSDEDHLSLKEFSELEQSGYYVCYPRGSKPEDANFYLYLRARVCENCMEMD

Binder	Kd [nM]	koff [s⁻¹]	kon [M⁻¹ s⁻¹]
B2	4.62	0.000827	179000
B1	3.61	0.000634	176000
B3	8.41	0.00141	167000
B4	1.71	0.000474	278000

These binders were tested against T1, hIL-5Rα, purified recombinant protein in the same assay as above.

Binder	Kd [nM]	koff [s⁻¹]	kon [M⁻¹ s⁻¹]
B2	22.9	0.000708	30900
B1	59.8	0.000171	2850
B3	123	0.000306	2500
B4	30.5	0.00011	3610

Each binder was assayed against human CD3ε on activated PBMC (human, UniProt P07766 23-207) (assay: cell-based or functional assay).
human CD3ε on activated PBMC, sequence (P07766 23-207): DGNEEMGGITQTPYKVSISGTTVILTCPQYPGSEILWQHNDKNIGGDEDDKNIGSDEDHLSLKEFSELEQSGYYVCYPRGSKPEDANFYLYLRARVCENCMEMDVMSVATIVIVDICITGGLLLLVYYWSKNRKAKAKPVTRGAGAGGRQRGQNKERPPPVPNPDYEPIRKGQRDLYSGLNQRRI

Binder	IFN-γ EC50 (pM), ELISA of supernatant after 24 h co-culture of activated PBMC and K562/IL-5Rα [pM]
B2	31000
B1	770
B3	2340
B4	2210

These binders were tested against T2, human IL-5Rα expressed on the … (assay: flow cytometry on K562/IL-5Rα cells, 50 nM antibody).

Binder	binding result
B5	binds
